Tested on: mouse embryonic fibroblasts (MEFs)
Assay: Cellular uptake of FITC-peptides by ImageXpress high-content microscopy
Details: MEFs 2×10^4 cells, 0% FBS, dose varied; text 2 hours, legend 4 hr

With “BIM BH3_1: unmodified template peptide FITC-BIM BH3_1 (aa 146–166)” the “TIFI versus FITC-peptide dose, result in words” value was “linear, dose-responsive increase in TIFI”.

From paper PMC5055751 (Nature chemical biology, 2016)
